Experimental data as given in patent US7326418B2, “Identification of novel factors that block programmed cell death or apoptosis by targeting JNK” (University of Chicago, priority 2001, dated 2008).

T1: MKK3b (Homo sapiens, UniProt P46734)
T1 construct: expressed in transfected cells; host or cells: HEK-293; anti-FLAG immunoprecipitate
T1 sequence (P46734 1-347): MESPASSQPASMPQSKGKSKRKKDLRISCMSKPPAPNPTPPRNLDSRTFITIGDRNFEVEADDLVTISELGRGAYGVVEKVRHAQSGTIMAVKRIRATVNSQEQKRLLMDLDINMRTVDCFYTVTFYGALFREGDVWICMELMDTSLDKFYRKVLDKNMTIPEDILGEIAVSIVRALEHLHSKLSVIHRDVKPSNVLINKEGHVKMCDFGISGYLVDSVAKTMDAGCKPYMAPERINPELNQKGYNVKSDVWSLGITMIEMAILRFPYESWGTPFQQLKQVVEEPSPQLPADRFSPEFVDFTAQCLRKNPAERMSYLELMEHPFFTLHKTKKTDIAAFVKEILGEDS

B1: GST-Gadd45β: full-length murine Gadd45β directly fused to GST, purified from E. coli (protein)
chain: MTLEELVASDNAVQKMQAVTAAVEQLLVAAQRQDRLTVGVYEAAKLMNVDPDSVVLCLLAIDEEEEDDIALQIHFTLIQSFCCDNDIDIVRVSGMQRLAQLLGEPAETLGTTEARDLHCLLVTNCHTDSWKSQGLVEVASYCEESRGNNQWVPYISLEER
modifications: left off: a dimerising Fc or GST
notes: full-length murine Gadd45β directly fused to GST, purified from E. coli
B2: Gadd45β: purified recombinant His6-tagged Gadd45β protein; also used generically for the recombinant Gadd45β proteins (protein, UniProt O75293 1-160, looked up)
Growth arrest and DNA …: MTLEELVACDNAAQKMQTVTAAVEELLVAAQRQDRLTVGVYESAKLMNVDPDSVVLCLLAIDEEEEDDIALQIHFTLIQSFCCDNDINIVRVSGMQRLAQLLGEPAETQGTTEARDLHCLLVTNPHTDAWKSHGLVEVASYCEESRGNNQWVPYISLQER
modifications: His6 tag
notes: purified recombinant His6-tagged Gadd45β protein; also used generically for the recombinant Gadd45β proteins
B3: His6-Gadd45β: human full-length Gadd45β purified from E. coli as His6-tagged protein (protein, UniProt O75293 1-160, looked up)
chain: B2 Growth arrest and DNA …
modifications: full-length His6 tag
notes: human full-length Gadd45β purified from E. coli as His6-tagged protein

target: T1, MKK3b; assay: Kinase assay of immunoprecipitated FLAG-MKK3b with recombinant Gadd45β proteins; assay type: biochemical; conditions: in vitro, even at high concentrations
Procedure: Next, the functional consequences, in vitro, of the physical interactions of Gadd45β with kinases in the JNK pathway were assessed. Murine and human, full-length Gadd45J3 proteins were purified from E. coli as GST-Gadd45β and His6-tagged Gadd45β (His6 disclosed as SEQ ID NO: 46), respectively, according to standard procedures. Prior to employing these proteins in in vitro assays, purity of all recombinant polypeptides was assured by >98%, by performing Coomassie blue staining of SDS polyacrylamide gels. Then, the ability of these proteins, as well as of control GST and His6-EF3 (His6 disclosed as SEQ ID NO: 46)proteins, to inhibit kinases in the JNK pathways was monitored in vitro. FLAG-tagged JNKK2, JNKK1, MKK3, and ASK1 were immunoprecipitated from transiently transfected 293 cells using anti-FLAG antibodies and pre-incubated for 10 minutes with increasing concentrations of recombinant proteins, prior to the addition of specific kinase substrates (i.e. GST-JNK1 with JNKK1 and JNKK2; GST-p38[…] with MKK3; GST-JNNK1 or GST-JNKK2 with ASK1). […] These findings indicate that, upon binding to Gadd45β, JNKK2 is effectively inactivated.
A question was whether Gadd45β inhibited active MKK7, in vitro. FLAG-MKK7 was immunoprecipitated from TNFα-treated or untreated 293 cells, and kinase assays were performed in the presence of purified His6-Gadd45β (His6 disclosed as SEQ ID NO: 46), GST-Gadd45β, or control proteins (FIG. 28d; see also FIG. 28g). […] Consistent with the in vivo findings (FIG. 27), the inhibitory activity of Gadd45β was specific. […] Indeed, the effects of Gadd45β on MKK7 phosphorylation by TNFα may be due inhibition of the MKK7 ability to auto-phoshorylate and/or to serve as substrate for upstream kinases. Altogether, the findings identify MKK7 as a target of Gadd45β, and of NF-[…]B, in the JNK cascade. Of interest, MKK7 is a selective activator of JNK, and its ablation abolishes JNK activation by TNFα. Thus, blockade of MKK7 is sufficient on its own to explain the effects of Gadd45β on JNK signaling—i.e. its specific and near-complete suppression of this signaling. […]

Row | Molecule | effect on MKK3/MKK3b kinase activity
1 | B1 | neither GST-Gadd45β nor His6-Gadd45β (His6 disclosed as SEQ ID NO: 46) had significant effects
2 | B2 | did not hamper
3 | B3 | neither GST-Gadd45β nor His6-Gadd45β (His6 disclosed as SEQ ID NO: 46) had significant effects
